US20230301998A1 (SANFORD BURNHAM PREBYS MEDICAL DISCOVERY INSTITUTE, published 2023)

Columns and labels:
Assay in all cases: Flag IP of Flag-SHARPIN from WM115 lysate, on-bead tryptic digestion, LC/MS-MS
HSPD1 = biological target: T1, HSPD1 (human, UniProt P10809 27-573)
T1 construct: endogenous protein co-purified from WM115 lysate
Method: (§1) To identify SHARPIN-interacting proteins, WM115 cells were transfected with Flag-tagged SHARPIN or control empty plasmid. Cell lysates were prepared using 1% Triton X-100 buffer [50 mM Tris-HCl, pH7.4, 1% (v/v) Triton X-100, 150 mM NaCl, 1 mM EDTA, and protease and phosphatase inhibitor cocktails (Thermo Fisher Scientific)]. Lysates were pre-cleared with protein A/G beads (Santa Cruz Biotechnology) for 1 h at 4° C. followed by immunoprecipitation using FLAG-M2-agarose beads (Sigma-Aldrich) overnight at 4° C. Beads were then washed with lysis buffer and TBS containing lx protease inhibitor cocktail before being subjected to on-bead tryptic digestion followed by mass spectrometry. In Vitro Methylation Assay.

ATP5B = biological target: T2, ATP5B (human, UniProt P06576 48-529)
T2 construct: endogenous protein co-purified from WM115 lysate
T2 sequence (P06576 48-529 limits assumed): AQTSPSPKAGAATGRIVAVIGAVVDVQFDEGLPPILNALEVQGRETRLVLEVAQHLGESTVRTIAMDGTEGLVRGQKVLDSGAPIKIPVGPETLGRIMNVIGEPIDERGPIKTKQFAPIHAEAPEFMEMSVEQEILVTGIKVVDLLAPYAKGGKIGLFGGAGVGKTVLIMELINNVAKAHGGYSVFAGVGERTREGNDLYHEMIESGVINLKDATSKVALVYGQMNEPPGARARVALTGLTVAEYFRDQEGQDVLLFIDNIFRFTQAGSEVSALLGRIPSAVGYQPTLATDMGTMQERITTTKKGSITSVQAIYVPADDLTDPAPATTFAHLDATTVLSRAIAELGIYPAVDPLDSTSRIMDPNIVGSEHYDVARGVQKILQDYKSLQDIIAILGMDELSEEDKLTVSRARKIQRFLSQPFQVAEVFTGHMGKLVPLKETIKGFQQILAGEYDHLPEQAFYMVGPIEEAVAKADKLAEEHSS
Method: as §1

XRCC6 = biological target: T3, XRCC6 (human, UniProt P12956 2-609)
T3 construct: endogenous protein co-purified from WM115 lysate
Method: as §1

RBM10 = biological target: T4, RBM10 (human, UniProt P98175 1-930, limits assumed)
T4 construct: endogenous protein co-purified from WM115 lysate
Method: as §1

PDIA6 = biological target: T5, PDIA6 (human, UniProt Q15084 20-440)
T5 construct: endogenous protein co-purified from WM115 lysate
T5 sequence (looked up): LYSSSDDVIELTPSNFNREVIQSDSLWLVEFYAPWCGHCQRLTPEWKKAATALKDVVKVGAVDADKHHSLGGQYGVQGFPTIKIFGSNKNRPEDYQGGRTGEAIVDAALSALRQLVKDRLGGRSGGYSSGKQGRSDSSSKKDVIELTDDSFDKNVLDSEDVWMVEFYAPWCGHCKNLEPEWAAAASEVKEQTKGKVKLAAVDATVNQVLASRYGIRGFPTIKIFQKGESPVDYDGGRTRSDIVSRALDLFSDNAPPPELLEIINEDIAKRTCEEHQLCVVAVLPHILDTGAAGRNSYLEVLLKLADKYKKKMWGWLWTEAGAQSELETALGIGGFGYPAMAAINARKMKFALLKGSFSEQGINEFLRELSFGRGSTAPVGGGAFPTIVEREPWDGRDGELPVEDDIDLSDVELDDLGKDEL
Method: as §1

HSPA8 = biological target: T6, HSPA8 (human, UniProt P11142 2-646)
T6 construct: endogenous protein co-purified from WM115 lysate
Method: as §1

PFKFB2 = biological target: T7, PFKFB2 (human, UniProt O60825 2-505, limits assumed)
T7 construct: endogenous protein co-purified from WM115 lysate
Method: as §1

P4HB = biological target: T8, P4HB (human, UniProt P07237 18-508)
T8 construct: endogenous protein co-purified from WM115 lysate
T8 sequence (P07237 18-508 limits assumed): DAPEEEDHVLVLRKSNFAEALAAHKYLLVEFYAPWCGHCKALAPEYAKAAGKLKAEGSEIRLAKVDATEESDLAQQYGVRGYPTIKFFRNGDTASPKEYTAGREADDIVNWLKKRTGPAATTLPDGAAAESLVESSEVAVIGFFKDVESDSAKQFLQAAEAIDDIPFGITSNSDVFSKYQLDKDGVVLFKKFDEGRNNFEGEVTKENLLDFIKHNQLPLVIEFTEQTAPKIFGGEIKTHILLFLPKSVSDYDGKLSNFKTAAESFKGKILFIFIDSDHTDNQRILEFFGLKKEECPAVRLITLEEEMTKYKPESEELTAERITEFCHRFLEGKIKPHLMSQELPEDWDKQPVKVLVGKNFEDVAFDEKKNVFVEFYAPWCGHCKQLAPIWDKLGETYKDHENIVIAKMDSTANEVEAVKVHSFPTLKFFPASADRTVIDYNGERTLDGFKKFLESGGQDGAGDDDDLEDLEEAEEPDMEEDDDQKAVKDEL
Method: as §1

[1] = biological target: T9, PRMT5 (endogenous, WM115 cells) (human, UniProt O14744 2-637)
T9 construct: endogenous protein co-purified from WM115 lysate; also called Protein arginine methyltransferase 5
Method: as §1

PNKP = biological target: T10, PNKP (human, UniProt Q96T60 1-521)
T10 construct: endogenous protein co-purified from WM115 lysate
Method: as §1

SLC25A13 = biological target: T11, SLC25A13 (human, UniProt Q9UJS0 2-675)
T11 construct: endogenous protein co-purified from WM115 lysate
T11 sequence (looked up): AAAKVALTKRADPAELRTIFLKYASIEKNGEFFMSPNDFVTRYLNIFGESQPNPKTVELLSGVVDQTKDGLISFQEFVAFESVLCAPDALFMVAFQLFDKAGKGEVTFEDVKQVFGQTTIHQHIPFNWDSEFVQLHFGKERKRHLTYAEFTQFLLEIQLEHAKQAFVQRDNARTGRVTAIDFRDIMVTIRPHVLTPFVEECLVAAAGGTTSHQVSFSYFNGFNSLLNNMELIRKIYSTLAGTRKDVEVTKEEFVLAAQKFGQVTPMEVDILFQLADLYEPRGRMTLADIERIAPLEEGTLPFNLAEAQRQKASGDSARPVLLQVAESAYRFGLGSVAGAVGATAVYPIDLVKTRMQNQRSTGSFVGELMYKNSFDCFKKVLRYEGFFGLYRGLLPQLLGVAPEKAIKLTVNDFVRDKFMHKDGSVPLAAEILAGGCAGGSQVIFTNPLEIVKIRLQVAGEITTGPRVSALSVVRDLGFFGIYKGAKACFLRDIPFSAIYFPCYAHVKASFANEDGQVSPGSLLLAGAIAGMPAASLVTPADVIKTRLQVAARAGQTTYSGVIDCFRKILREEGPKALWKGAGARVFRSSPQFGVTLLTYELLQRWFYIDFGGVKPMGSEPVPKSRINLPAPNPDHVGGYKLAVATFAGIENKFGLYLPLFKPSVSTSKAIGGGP
Method: as §1

PFKFB3 = biological target: T12, PFKFB3 (human, UniProt Q16875 1-520, limits assumed)
T12 construct: endogenous protein co-purified from WM115 lysate
T12 sequence (Q16875 whole entry): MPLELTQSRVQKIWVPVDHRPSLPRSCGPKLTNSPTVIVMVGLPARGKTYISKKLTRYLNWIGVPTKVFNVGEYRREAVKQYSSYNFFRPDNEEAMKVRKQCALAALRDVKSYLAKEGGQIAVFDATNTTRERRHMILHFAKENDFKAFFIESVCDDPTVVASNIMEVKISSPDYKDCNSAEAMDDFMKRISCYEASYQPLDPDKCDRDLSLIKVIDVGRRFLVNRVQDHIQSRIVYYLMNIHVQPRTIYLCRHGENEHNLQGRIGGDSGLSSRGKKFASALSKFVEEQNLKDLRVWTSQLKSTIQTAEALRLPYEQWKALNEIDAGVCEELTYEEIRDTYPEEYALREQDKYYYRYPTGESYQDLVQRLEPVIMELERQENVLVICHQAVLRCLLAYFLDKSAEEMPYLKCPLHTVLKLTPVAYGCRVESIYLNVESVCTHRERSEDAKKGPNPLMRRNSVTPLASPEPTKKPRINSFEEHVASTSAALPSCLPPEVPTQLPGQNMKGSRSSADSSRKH
Method: as §1

TUBB = biological target: T13, TUBB (human, UniProt P07437 1-444)
T13 construct: endogenous protein co-purified from WM115 lysate
T13 sequence (P07437 whole entry): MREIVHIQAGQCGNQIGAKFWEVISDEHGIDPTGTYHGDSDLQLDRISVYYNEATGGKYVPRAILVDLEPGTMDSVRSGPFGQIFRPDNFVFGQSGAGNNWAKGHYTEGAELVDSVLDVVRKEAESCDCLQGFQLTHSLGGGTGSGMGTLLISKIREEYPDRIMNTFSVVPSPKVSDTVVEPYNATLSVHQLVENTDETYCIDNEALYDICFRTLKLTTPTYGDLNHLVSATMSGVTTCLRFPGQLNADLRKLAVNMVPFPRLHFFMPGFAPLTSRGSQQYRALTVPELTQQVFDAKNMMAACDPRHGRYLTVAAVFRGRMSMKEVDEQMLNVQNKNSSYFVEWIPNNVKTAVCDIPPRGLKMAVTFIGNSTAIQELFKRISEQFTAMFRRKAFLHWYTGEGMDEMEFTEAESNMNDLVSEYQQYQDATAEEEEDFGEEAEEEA
Method: as §1

HSPA5 = biological target: T14, HSPA5 (human, UniProt P11021 19-654)
T14 construct: endogenous protein co-purified from WM115 lysate
Method: as §1

PKM = biological target: T15, PKM (human, UniProt P14618 2-531, limits assumed)
T15 construct: endogenous protein co-purified from WM115 lysate
Method: as §1

CLTC = biological target: T16, CLTC (human, UniProt Q00610 2-1675)
T16 construct: endogenous protein co-purified from WM115 lysate
T16 sequence (Q00610 2-1675 limits assumed): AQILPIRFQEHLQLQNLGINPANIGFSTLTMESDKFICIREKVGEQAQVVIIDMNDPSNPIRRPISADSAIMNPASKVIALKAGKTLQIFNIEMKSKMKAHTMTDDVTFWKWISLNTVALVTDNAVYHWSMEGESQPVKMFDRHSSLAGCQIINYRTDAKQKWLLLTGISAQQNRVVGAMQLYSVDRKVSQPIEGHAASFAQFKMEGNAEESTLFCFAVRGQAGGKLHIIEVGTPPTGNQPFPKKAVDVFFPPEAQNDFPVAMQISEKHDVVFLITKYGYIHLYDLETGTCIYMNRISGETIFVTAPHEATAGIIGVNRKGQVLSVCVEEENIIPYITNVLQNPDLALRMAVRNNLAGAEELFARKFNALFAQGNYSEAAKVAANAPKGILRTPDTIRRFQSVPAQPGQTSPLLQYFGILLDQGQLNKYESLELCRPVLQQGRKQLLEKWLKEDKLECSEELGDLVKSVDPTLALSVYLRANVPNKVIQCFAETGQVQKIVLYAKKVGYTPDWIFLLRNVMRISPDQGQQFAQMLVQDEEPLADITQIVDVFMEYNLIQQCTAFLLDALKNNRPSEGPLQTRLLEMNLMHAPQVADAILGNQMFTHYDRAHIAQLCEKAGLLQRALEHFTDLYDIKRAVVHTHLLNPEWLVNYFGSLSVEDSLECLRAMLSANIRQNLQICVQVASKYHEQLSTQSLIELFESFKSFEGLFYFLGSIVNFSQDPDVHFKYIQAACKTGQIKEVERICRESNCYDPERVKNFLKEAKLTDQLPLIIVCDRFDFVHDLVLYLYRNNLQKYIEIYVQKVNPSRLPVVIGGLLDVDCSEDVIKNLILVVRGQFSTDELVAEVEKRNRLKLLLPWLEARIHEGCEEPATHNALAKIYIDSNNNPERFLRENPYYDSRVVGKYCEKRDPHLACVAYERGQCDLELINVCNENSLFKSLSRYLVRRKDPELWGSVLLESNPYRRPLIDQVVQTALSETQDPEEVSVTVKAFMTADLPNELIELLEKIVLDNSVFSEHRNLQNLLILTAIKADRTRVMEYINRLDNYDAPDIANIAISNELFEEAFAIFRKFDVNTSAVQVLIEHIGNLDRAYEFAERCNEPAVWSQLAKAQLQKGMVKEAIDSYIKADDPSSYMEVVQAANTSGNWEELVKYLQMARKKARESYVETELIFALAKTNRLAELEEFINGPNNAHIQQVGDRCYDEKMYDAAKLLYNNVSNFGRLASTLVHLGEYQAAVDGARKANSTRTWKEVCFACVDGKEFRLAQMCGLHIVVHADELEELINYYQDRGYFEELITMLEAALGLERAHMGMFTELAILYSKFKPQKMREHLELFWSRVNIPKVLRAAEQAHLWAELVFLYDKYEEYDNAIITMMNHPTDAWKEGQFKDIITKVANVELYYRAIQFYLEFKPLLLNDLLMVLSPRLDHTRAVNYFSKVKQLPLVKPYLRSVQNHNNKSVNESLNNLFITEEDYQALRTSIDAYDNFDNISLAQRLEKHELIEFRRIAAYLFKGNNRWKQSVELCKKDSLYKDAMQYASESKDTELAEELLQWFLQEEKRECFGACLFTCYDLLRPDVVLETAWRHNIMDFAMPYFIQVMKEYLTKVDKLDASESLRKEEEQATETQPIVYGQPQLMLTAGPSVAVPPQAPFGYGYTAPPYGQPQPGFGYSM
Method: as §1

Measured: binding result

T1 sequence (P10809 27-573 limits assumed): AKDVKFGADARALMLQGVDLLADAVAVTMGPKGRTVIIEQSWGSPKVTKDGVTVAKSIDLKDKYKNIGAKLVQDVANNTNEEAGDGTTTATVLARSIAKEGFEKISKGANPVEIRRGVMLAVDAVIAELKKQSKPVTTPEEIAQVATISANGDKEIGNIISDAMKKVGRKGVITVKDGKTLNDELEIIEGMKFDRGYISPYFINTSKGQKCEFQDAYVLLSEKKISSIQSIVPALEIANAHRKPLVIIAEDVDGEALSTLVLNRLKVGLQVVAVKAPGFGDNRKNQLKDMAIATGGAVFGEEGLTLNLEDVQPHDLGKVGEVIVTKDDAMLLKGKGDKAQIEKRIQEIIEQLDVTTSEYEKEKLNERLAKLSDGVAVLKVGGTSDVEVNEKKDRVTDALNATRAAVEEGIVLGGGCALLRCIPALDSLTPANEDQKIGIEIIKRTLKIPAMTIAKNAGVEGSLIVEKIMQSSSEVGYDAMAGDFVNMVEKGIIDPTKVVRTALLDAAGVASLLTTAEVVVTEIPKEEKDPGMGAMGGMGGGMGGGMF

B1: Flag-tagged SHARPIN (other, human, UniProt Q9H0F6 1-387, looked up)
chain: MAPPAGGAAAAASDLGSAAVLLAVHAAVRPLGAGPDAEAQLRRLQLSADPERPGRFRLELLGAGPGAVNLEWPLESVSYTIRGPTQHELQPPPGGPGTLSLHFLNPQEAQRWAVLVRGATVEGQNGSKSNSPPALGPEACPVSLPSPPEASTLKGPPPEADLPRSPGNLTEREELAGSLARAIAGGDEKGAAQVAAVLAQHRVALSVQLQEACFPPGPIRLQVTLEDAASAASAASSAHVALQVHPHCTVAALQEQVFSELGFPPAVQRWVIGRCLCVPERSLASYGVRQDGDPAFLYLLSAPREAPATGPSPQHPQKMDGELGRLFPPSLGLPPGPQPAASSLPSPLQPSWSCPSCTFINAPDRPGCEMCSTQRPCTWDPLAAAST
notes: also called Flag-SHARPIN; not shown: FLAG tag
binds: all assays above
